These results are taken from doi:10.1101/2021.01.14.426755 (bioRxiv, 2021).

Sequences and labels used below:
B4: Ssl2 (natural protein)
chain: MTDVEGYQPKSKGKIFPDMGESFFSSDEDSPATDAEIDENYDDNRETSEGRGERDTGAMVTGLKKPRKKTKSSRHTAADSSMNQMDAKDKALLQDTNSDIPADFVPDSVSGMFRSHDFSYLRLRPDHASRPLWISPSDGRIILESFSPLAEQAQDFLVTIAEPISRPSHIHEYKITAYSLYAAVSVGLETDDIISVLDRLSKVPVAESIINFIKGATISYGKVKLVIKHNRYFVETTQADILQMLLNDSVIGPLRIDSDHQVQPPEDVLQQQLQQTAGKPATNVNPNDVEAVFSAVIGGDNEREEEDDDIDAVHSFEIANESVEVVKKRCQEIDYPVLEEYDFRNDHRNPDLDIDLKPSTQIRPYQEKSLSKMFGNGRARSGIIVLPCGAGKTLVGITAACTIKKSVIVLCTSSVSVMQWRQQFLQWCTLQPENCAVFTSDNKEMFQTESGLVVSTYSMVANTRNRSHDSQKVMDFLTGREWGFIILDEVHVVPAAMFRRVVSTIAAHAKLGLTATLVREDDKIGDLNFLIGPKLYEANWMELSQKGHIANVQCAEVWCPMTAEFYQEYLRETARKRMLLYIMNPTKFQACQFLIQYHERRGDKIIVFSDNVYALQEYALKMGKPFIYGSTPQQERMNILQNFQYNDQINTIFLSKVGDTSIDLPEATCLIQISSHYGSRRQEAQRLGRILRAKRRNDEGFNAFFYSLVSKDTQEMYYSTKRQAFLVDQGYAFKVITHLHGMENIPNLAYASPRERRELLQEVLLKNEEAAGIEVGDDADNSVGRGSNGHKRFKSKAVRGEGSLSGLAGGEDMAYMEYSTNKNKELKEHHPLIRKMYYKNLKK

Experiment [1] has as its target T1, Rad3 (yeast (endogenous, purified from yeast), UniProt P06839 1-778).
T1 sequence: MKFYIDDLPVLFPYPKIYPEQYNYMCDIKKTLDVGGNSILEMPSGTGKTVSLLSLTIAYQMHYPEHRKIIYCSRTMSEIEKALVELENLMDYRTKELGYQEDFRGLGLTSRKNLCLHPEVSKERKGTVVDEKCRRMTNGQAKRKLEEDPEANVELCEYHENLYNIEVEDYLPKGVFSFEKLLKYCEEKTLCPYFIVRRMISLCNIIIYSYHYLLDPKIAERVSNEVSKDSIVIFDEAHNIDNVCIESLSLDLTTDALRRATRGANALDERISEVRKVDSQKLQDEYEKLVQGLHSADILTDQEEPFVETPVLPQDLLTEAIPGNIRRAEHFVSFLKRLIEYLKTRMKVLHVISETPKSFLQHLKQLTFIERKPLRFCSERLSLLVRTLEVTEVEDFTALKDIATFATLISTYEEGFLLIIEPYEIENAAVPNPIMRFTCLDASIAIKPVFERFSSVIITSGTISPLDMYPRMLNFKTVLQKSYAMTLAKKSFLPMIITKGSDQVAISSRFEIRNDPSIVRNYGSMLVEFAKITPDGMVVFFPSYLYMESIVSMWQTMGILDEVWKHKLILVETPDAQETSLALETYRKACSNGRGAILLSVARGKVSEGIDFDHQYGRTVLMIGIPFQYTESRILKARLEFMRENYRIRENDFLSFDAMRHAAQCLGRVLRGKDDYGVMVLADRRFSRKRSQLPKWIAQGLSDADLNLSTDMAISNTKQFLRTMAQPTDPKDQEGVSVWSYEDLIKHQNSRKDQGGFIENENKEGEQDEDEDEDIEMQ
As to the kind of experiment: cryo-EM structure.

Experiment [2] has as its target T2, Rad4 (yeast, UniProt P14736 1-754).
T2 sequence: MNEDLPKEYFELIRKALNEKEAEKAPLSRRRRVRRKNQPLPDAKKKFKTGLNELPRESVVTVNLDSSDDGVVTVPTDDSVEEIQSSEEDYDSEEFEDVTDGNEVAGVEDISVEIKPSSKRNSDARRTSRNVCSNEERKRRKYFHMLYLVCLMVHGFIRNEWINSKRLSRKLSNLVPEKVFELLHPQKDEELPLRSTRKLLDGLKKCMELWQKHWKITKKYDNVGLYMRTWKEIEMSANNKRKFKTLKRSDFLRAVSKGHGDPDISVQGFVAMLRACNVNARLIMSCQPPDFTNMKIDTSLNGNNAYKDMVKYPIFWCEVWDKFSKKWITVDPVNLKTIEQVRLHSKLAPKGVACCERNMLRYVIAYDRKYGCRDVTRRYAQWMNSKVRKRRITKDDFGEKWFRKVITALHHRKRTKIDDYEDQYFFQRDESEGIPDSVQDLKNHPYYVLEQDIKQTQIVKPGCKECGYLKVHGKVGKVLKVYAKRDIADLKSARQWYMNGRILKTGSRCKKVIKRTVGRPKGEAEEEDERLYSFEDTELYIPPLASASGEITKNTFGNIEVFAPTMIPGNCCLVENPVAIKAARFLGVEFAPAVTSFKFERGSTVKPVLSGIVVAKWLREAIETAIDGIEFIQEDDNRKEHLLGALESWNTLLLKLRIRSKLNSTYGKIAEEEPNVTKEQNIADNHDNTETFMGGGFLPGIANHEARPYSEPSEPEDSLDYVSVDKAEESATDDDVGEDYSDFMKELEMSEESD
Nature of the experiment: cryo-EM structure.

For experiment [3], the target named is T3, Rad4-Rad23-Rad33 complex (yeast, UniProt P14736 1-754; P32628 1-398; Q04231 1-177).
T3 sequence 1: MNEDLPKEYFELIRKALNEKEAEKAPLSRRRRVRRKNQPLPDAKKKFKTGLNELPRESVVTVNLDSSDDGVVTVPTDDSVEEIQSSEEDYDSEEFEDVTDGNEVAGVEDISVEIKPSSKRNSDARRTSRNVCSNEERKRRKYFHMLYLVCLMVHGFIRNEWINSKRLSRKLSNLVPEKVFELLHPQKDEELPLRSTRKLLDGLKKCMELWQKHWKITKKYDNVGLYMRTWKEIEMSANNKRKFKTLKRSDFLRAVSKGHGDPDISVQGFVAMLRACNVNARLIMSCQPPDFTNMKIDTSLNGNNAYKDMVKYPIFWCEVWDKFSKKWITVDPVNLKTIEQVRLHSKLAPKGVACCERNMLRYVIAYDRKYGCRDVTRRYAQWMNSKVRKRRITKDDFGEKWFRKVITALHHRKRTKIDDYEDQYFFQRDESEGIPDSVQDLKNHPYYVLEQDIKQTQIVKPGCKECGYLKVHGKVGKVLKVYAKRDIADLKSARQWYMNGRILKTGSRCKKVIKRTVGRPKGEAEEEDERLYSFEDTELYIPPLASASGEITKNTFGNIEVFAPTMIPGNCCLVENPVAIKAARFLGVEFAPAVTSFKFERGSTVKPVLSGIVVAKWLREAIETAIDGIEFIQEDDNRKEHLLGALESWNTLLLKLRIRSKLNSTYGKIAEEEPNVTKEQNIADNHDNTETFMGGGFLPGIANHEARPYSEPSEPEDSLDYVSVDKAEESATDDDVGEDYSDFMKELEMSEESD
T3 sequence 2: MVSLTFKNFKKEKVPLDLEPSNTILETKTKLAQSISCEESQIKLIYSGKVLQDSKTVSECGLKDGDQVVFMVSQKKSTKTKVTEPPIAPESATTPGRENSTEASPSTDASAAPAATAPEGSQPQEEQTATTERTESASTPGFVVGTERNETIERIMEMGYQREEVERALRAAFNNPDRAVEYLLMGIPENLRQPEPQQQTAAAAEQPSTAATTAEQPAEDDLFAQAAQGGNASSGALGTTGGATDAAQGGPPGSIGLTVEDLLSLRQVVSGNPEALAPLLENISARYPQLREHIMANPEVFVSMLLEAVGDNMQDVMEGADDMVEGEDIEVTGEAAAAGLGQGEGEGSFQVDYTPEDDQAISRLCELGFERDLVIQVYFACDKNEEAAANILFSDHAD
T3 sequence 3: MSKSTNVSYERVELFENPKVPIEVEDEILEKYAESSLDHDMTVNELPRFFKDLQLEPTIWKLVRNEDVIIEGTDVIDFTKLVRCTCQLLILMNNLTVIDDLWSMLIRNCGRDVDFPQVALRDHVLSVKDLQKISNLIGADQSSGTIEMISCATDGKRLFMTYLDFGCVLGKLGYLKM
Nature of the experiment: cross-linking.

The target in experiment [4] is B4. Nature of the experiment: cryo-EM structure.

B1: Ssl1 (natural protein)
chain: MAPVVISESEEDEDRVAITRRTKRQVHFDGEGDDRVDQQQQQHSSSHRDRDKHVQRKKKKRLSNRNLQGSNGGYAWEDEIKRSWDLVKVDDEGDMASLVASIVEARKKRTAKKNITPYQRGIIRSLILTLDCSEAMLEKDLRPNRHAMIIQYAIDFVHEFFDQNPISQMGIIIMRNGLAQLVSQVSGNPQDHIDALKSIRKQEPKGNPSLQNALEMARGLLLPVPAHCTREVLIVFGSLSTTDPGDIHQTIDSLVSEKIRVKVLGLSAQVAICKELCKATNYGDESFYKILLDETHLKELFNEAVTPLPVNKINKGFTLVKMGFPTRIFEDTPTFCSCHSKLVYGGYFCPNCHSKVCSLPTVCPCCDLMLILSTHLARSYHHLMPLKTFAEVPTTEKFRSEDCFSCQSRFPILKNHKNGKLLTSSRYRCEDCKQEFCVDCDVFIHEILHNCPGCESKPVIT
On to B1, for which the binding result in experiment [1] is “binds”.

B2: Tfb1 (natural protein)
chain: MSHSGAAIFEKVSGIIAINEDVSPAELTWRSTDGDKVHTVVLSTIDKLQATPASSEKMMLRLIGKVDESKKRKDNEGNEVVPKPQRHMFSFNNRTVMDNIKMTLQQIISRYKDADIYEEKRRREESAQHTETPMSSSSVTAGTPTPHLDTPQLNNGAPLINTAKLDDSLSKEKLLTNLKLQQSLLKGNKVLMKVFQETVINAGLPPSEFWSTRIPLLRAFALSTSQKVGPYNVLSTIKPVASSENKVNVNLSREKILNIFENYPIVKKAYTDNVPKNFKEPEFWARFFSSKLFRKLRGEKIMQNDRGDVIIDRYLTLDQEFDRKDDDMLLHPVKKIIDLDGNIQDDPVVRGNRPDFTMQPGVDINGNSDGTVDILKGMNRLSEKMIMALKNEYSRTNLQNKSNITNDEEDEDNDERNELKIDDLNESYKTNYAIIHLKRNAHEKTTDNDAKSSADSIKNADLKVSNQQMLQQLSLVMDNLINKLDLNQVVPNNEVSNKINKRVITAIKINAKQAKHNNVNSALGSFVDNTSQANELEVKSTLPIDLLESCRMLHTTCCEFLKHFYIHFQSGEQKQASTVKKLYNHLKDCIEKLNELFQDVLNGDGESMSNTCTAYLKPVLNSITLATHKYDEYFNEYNNNSN
Regarding B2, the binding result in experiment [2], in experiment [1] and in experiment [3] was “binds” each time.

B3: Rad33 (natural protein)
chain: MSKSTNVSYERVELFENPKVPIEVEDEILEKYAESSLDHDMTVNELPRFFKDLQLEPTIWKLVRNEDVIIEGTDVIDFTKLVRCTCQLLILMNNLTVIDDLWSMLIRNCGRDVDFPQVALRDHVLSVKDLQKISNLIGADQSSGTIEMISCATDGKRLFMTYLDFGCVLGKLGYLKM
For B3, the binding result in experiment [2] and in experiment [4] was “binds” in each case.

As for B4, in experiment [3], the binding result is listed as “binds”.
